Data on three molecules can be found in paper PMC2597643 (Nature, 2008).

Where “and” joins values, the source holds several entries; their conditions need not be identical. Identical values can stand only once.

One series concerns the target Orai (in HEK-293 cells) (UniProt Q9U6B8). The experiment in a line: native gel or EMSA.
The series “cross-linking” deals with the molecule itself. The experiment in a line: cross-linking.
Series [1] deals with the molecule itself. Kind of series: single-molecule photobleaching.

As usually defined, the stoichiometry N is the number of molecules, sites or subunits per partner or assembly. Molecule “Orai (in HEK-293 cells) (from UniProt Q9U6B8 1-351) (natural protein)” gave a stoichiometry N with Orai (in HEK-293 cells) of 2.

B1: HA-tagged Orai (natural protein)
chain: MSVWTTANNSGLETPTKSPITSSVPRAARSSAVITTGNHQQHHFQHVVAAAVAAATSVATGHQFQQQFPLHAHPHPQHHSNSPTGSGSNSNNSAGFQRTSISNSLLQFPPPPPPSSQNQAKPRGHHRTASSSMSQSGEDLHSPTYLSWRKLQLSRAKLKASSKTSALLSGFAMVAMVEVQLDHDTNVPPGMLIAFAICTTLLVAVHMLALMISTCILPNIETVCNLHSISLVHESPHERLHWYIETAWAFSTLLGLILFLLEIAILCWVKFYDLSPPAAWSACVVLIPVMIIFMAFAIHFYRSLVSHKYEVTVSGIRELEMLKEQMEQDHLEHHNNIRNNGMNYGASGDIV
For B1, the “stoichiometry N” value in “cross-linking” was determined as 2.

B2: GFP-Flag-Orai (in Xenopus oocytes) (natural protein)
chain: B1 chain
Regarding B2, in series [1], the “stoichiometry N” value is 2 and 4.
